“And” between values parts separate entries of the source, which are not always exact repeats. Identical values can stand only once.
What was measured:
TRF2 Myb domain = test: cited; conditions: Tightrope assays at 75-225 mM ionic strength (buffer, pH and temperature not in the material); AFM samples diluted 10-fold in 25 mM NaOAc, 25 mM HEPES-KOH pH 7.; cited from earlier work
TRF1 Myb domain = test: cited; conditions: Tightrope assays at 75-225 mM ionic strength (buffer, pH and temperature not in the material); AFM samples diluted 10-fold in 25 mM NaOAc, 25 mM HEPES-KOH pH 7.; cited from earlier work
TRF2ΔB [1] = biological target: T1, TRF2ΔB (UniProt Q15554); test: single-molecule DNA tightrope; conditions: 125 mM ionic strength; Tightrope assays at 75-225 mM ionic strength (buffer, pH and temperature not in the material); AFM samples diluted 10-fold in 25 mM NaOAc, 25 mM HEPES-KOH pH 7.
T1 sequence: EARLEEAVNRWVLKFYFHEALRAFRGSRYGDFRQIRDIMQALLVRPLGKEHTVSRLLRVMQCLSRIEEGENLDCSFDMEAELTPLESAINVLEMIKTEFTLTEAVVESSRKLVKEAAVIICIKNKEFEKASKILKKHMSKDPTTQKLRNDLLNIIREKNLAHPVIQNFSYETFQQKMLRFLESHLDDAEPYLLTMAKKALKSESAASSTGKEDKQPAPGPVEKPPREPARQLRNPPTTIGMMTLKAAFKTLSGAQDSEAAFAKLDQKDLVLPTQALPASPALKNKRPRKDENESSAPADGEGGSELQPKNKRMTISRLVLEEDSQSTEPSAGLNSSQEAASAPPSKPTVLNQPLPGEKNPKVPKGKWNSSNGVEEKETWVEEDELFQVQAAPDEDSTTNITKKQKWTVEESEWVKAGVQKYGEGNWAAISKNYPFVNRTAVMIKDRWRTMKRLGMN

TRF2 = biological target: T2, TRF2 (UniProt Q15554); test: single-molecule DNA tightrope; conditions: Tightrope assays at 75-225 mM ionic strength (buffer, pH and temperature not in the material); AFM samples diluted 10-fold in 25 mM NaOAc, 25 mM HEPES-KOH pH 7.
T2 sequence: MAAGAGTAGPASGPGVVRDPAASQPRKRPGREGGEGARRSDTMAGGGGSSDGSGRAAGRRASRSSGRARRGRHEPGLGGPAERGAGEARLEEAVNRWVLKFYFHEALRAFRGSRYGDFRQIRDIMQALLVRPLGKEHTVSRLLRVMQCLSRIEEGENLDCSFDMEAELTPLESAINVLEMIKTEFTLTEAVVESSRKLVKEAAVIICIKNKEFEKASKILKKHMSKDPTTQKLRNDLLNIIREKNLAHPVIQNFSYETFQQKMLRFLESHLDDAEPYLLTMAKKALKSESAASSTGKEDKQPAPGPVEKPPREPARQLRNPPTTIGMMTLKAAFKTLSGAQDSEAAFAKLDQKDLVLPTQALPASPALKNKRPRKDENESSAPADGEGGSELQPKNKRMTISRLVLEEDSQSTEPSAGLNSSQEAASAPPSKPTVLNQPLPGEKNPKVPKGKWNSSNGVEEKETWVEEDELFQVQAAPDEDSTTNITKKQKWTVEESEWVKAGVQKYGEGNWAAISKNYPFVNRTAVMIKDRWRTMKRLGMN

TRF2ΔB [2] = biological target: T1, TRF2ΔB; test: AFM; conditions: linear T270; Tightrope assays at 75-225 mM ionic strength (buffer, pH and temperature not in the material); AFM samples diluted 10-fold in 25 mM NaOAc, 25 mM HEPES-KOH pH 7.
TRF1 = biological target: T3, TRF1 (UniProt P54274); test: single-molecule DNA tightrope; conditions: Tightrope assays at 75-225 mM ionic strength (buffer, pH and temperature not in the material); AFM samples diluted 10-fold in 25 mM NaOAc, 25 mM HEPES-KOH pH 7.
T3 sequence: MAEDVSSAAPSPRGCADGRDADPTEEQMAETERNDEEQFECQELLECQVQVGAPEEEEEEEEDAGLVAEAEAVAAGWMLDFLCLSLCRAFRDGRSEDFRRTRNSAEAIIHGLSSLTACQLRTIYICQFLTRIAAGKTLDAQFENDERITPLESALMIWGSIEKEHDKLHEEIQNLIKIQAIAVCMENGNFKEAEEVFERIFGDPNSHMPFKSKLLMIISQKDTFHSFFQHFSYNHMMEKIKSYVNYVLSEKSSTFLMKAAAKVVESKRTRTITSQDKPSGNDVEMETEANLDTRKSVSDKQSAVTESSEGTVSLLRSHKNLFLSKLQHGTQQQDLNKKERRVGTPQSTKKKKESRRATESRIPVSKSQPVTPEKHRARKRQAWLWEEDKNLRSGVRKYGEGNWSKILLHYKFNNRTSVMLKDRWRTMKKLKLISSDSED

## telomeric DNA of cited Myb domain study
TRF2 Myb domain
  Kd: 750 nM
TRF1 Myb domain
  Kd: 200 nM

## lambda DNA
TRF2ΔB [1]
  binding signal (QDs per field of view (TRF2 13.3)): 1.4

## TTAGGGTTAGGGTTAGGGTTAGGGTTAGGGTTAGGGTTAGGGTTAGGGTTAGGGTTAGGG (double strand) [Tel10 telomeric region (TTAGGG)10]
TRF2
  binding signal (s (attached lifetime)): 6.7

## T270 telomeric region (TTAGGG)270
TRF2ΔB [2]
  binding signal (% of DNA-bound QDs at telomeric region): 66
TRF2
  binding signal (s (attached lifetime)): 14.8 and 10.3
TRF1
  binding signal (s (attached lifetime)): 17.3 and 9.2

Source: paper PMC3936710
